Values of other authors in publication PMC4390431.
Where two headings read alike, the source gives them in different places.

Key:
IscU (Escherichia coli) [1] = molecular target: IscU (Escherichia coli) (UniProt P0ACD4); assay: SPR
IscU (Escherichia coli) [2] = molecular target: IscU (Escherichia coli) (UniProt P0ACD4); assay: SPR; remark: listed apart in the source

UniProt P0ACD4, sequence (P0ACD4 whole entry): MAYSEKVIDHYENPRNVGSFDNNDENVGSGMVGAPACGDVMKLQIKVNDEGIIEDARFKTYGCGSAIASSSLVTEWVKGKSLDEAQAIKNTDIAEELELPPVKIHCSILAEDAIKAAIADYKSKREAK

**Q.** For HscA (from UniProt P0A6Z1), which Kd (IscU (Escherichia coli) [1]) is on record?
**A.** 0.1 µM

**Q.** And the Kd (IscU (Escherichia coli) [2])?
**A.** 37 µM
